Experimental findings from paper PMC3950707 are described below.

Data set [1] has as its system LexA. Briefly: single-molecule FRET (smTIRF), koff/kon. To be noted: smTIRF and PIFE on DNA: 10 mM Tris-HCl pH 8.0, 130 mM NaCl, 10% glycerol, 0.005% Tween20, 1% BME (0.1 mg/ml BSA in smTIRF and LexA PIFE), nucleosome smTIRF and ….
In data set [2] the test system is Gal4(1-147) (Saccharomyces cerevisiae). Briefly: ensemble PIFE. To be noted: 100 pM DNA (titration-limited), Hill 1.5; legend error 5; internal aminoC6dT in both primers; smTIRF and PIFE on DNA: 10 mM Tris-HCl pH 8.0, 130 mM NaCl, 10% glycerol, 0.005% Tween20, 1% BME (0.1 mg/ml BSA in smTIRF and LexA PIFE); nucleosome smTIRF and ….
For data set [3] the test system is unchanged. As to the kind of experiment: EMSA. As to conditions: 200 pM DNA (titration-limited), Hill 1.5; legend 240 +/- 10; poly-dIdC; internal aminoC6dT in both primers; smTIRF and PIFE on DNA: 10 mM Tris-HCl pH 8.0, 130 mM NaCl, 10% glycerol, 0.005% Tween20, 1% BME (0.1 mg/ml BSA in smTIRF and LexA PIFE); nucleosome smTIRF and ….
For data set [4] the test system is unchanged. As to the kind of experiment: single-molecule PIFE intensity histograms (smTIRF). To be noted: Hill 2; Fig 4 legend gives 5 +/- 1; koff << 5e-4 s-1; internal aminoC6dT in both primers; smTIRF and PIFE on DNA: 10 mM Tris-HCl pH 8.0, 130 mM NaCl, 10% glycerol, 0.005% Tween20, 1% BME (0.1 mg/ml BSA in smTIRF and LexA PIFE); nucleosome smTIRF and ….
For data set [5], the system named is LexA. Briefly: ensemble PIFE. To be noted: 0.2 nM DNA, non-cooperative fit; aminoC6 at 5' end; aminoC6dT in reverse primer; smTIRF and PIFE on DNA: 10 mM Tris-HCl pH 8.0, 130 mM NaCl, 10% glycerol, 0.005% Tween20, 1% BME (0.1 mg/ml BSA in smTIRF and LexA PIFE); nucleosome smTIRF and ….
The subject of data set [6] is LexA. As to the kind of experiment: single-molecule PIFE (smTIRF), koff/kon. To be noted: aminoC6 at 5' end; aminoC6dT in reverse primer; smTIRF and PIFE on DNA: 10 mM Tris-HCl pH 8.0, 130 mM NaCl, 10% glycerol, 0.005% Tween20, 1% BME (0.1 mg/ml BSA in smTIRF and LexA PIFE); nucleosome smTIRF and ….
The subject of data set [7] is Gal4(1-147) (Saccharomyces cerevisiae). As to the kind of experiment: single-molecule FRET (smTIRF), koff/kon. To be noted: aminoC6 at 5' end; smTIRF and PIFE on DNA: 10 mM Tris-HCl pH 8.0, 130 mM NaCl, 10% glycerol, 0.005% Tween20, 1% BME (0.1 mg/ml BSA in smTIRF and LexA PIFE); nucleosome smTIRF and ….

Turning to LexA dinucleosome array, in data set [1] (internal aminoC6dT), the Kd was 40000 nM.
As for dsDNA-Gal4, the results for the K half in data set [2], in data set [3] and in data set [4] were 0.042 nM, 0.242 nM and 5 pM, respectively.
For dsDNA-LexA, the values for the Kd in data set [5] and in data set [6] were 0.13 nM and 0.07 nM, respectively.
nucDNA-Gal4 mononucleosome came in with a Kd in data set [7] of 0.051 nM.
On to nucDNA-LexA mononucleosome, for which, in data set [1] (aminoC6 at 5' end), the Kd amounted to 40000 nM.
